Measured values as given in publication PMC9565474, “Evolution avoids a pathological stabilizing interaction in the immune protein S100A9” (Proceedings of the National Academy of Sciences of the …, 2022).

Target: the molecule itself
Assay: NMR structure; calcium-bound hS100A9/M63F, 0.5 to 1.0 mM dimer, 25 mM Tris, 100 mM NaCl, 10 mM CaCl2 (pH 7.4), 10% D2O, 25 °C or 37 °C; homodimer with chains A and B

B1: hS100A9/M63F (natural protein, human, UniProt P06702 1-114, looked up)
chain: MTSKMSQLERNIETIINTFHQYSVKLGHPDTLNQGEFKELVRKDLQNFLKKENKNEKVIEHIFEDLDTNADKQLSFEEFIMLMARLTWASHEKMHEGDEGPGHHHKPGLGEGTP
notes: human S100A9, Uniprot P06702, Cys-free (C3S) background with M63F; 114 residues (residues 1 to 114 named in the NMR structure); 15N or 15N/13C labelled for NMR; also called human S100A9 M63F; F/F
B1: binds.
